Results on 13 molecules are retold here after article PMC11079029, “Intramolecular autoinhibition regulates the selectivity of PRPF40A tandem WW domains for proline-rich motifs” (Nature Communications, 2024).

B1: GB1-tagged SF1 470-485 peptide (peptide)
chain: GAMSGSMPPPPMGMMPPPPPPPSGSN
notes: common N-terminal residues after the TEV site; SF1 residues 470-485; common C-terminal residues; source: E. coli BL21(DE3), purified (Ni-NTA, SEC), GB1 tag kept; not shown: GB1, N-terminal, kept
B2: GB1-SF1 Pro C (residues 539-594) (domain or fragment, UniProt Q15637 539-594, looked up)
chain: GSIPPWQQQQAAAAASPGAPQMQGNPTMVPLPPGVQPPLPPGAPPPPPPPPPGSAG
notes: splicing factor 1 (SF1), residues 539-594 of the proline-rich C-terminal region (holds the WWbs motif 575-590); His6-GB1-TEV site cassette of the pET24 vector, not cleaved; source: E. coli BL21(DE3), purified (Ni-NTA, SEC); not shown: GB1, N-terminal, kept
B3: GB1-SF1 Pro D (residues 594-639) (domain or fragment, UniProt Q15637 594-639, looked up)
chain: GMMYAPPPPPPPPMDPSNFVTMMGMGVAGMPPFGMPPAPPPPPPQN
notes: splicing factor 1 (SF1), residues 594-639 of the proline-rich C-terminal region; His6-GB1-TEV site cassette of the pET24 vector, not cleaved; source: E. coli BL21(DE3), purified (Ni-NTA, SEC); not shown: GB1, N-terminal, kept
B4: GB1-SF1 Pro B (residues 468-539) (domain or fragment, UniProt Q15637 468-539, looked up)
chain: GMMPPPPMGMMPPPPPPPSGQPPPPPSGPLPPWQQQQQQPPPPPPPSSSMASSTPLPWQQNTTTTTTSAGTG
notes: splicing factor 1 (SF1), residues 468-539 of the proline-rich C-terminal region; His6-GB1-TEV site cassette of the pET24 vector, not cleaved; source: E. coli BL21(DE3), purified (Ni-NTA, SEC); not shown: GB1, N-terminal, kept
B5: GB1-SF3A1 Middle Pro (residues 364-413) (domain or fragment, UniProt Q15459 364-413, looked up)
chain: EGQKVPPPPETPMPPPLPPTPDQVIVRKDYDPKASKPLPPAPAPDEYLVS
notes: SF3A1 (U2 snRNP component), proline-rich region, residues 364-413; His6-GB1-TEV site cassette of the pET24 vector, not cleaved; source: E. coli BL21(DE3), purified (Ni-NTA, SEC); not shown: GB1, N-terminal, kept
B6: GB1-SF1 Pro ABCD (residues 410-639) (domain or fragment, UniProt Q15637 410-639, looked up)
chain: GHPMQHNPNGPPPPWMQPPPPPMNQGPHPPGHHGPPPMDQYLGSTPVGSGVYRLHQGKGMMPPPPMGMMPPPPPPPSGQPPPPPSGPLPPWQQQQQQPPPPPPPSSSMASSTPLPWQQNTTTTTTSAGTGSIPPWQQQQAAAAASPGAPQMQGNPTMVPLPPGVQPPLPPGAPPPPPPPPPGSAGMMYAPPPPPPPPMDPSNFVTMMGMGVAGMPPFGMPPAPPPPPPQN
notes: splicing factor 1 (SF1), residues 410-639, the complete proline-rich C-terminal region; His6-GB1-TEV site cassette of the pET24 vector, not cleaved; source: E. coli BL21(DE3), purified (Ni-NTA, SEC); not shown: GB1, N-terminal, kept
B7: GB1-SF1 Pro BC (residues 468-594) (domain or fragment, UniProt Q15637 468-594, looked up)
chain: GMMPPPPMGMMPPPPPPPSGQPPPPPSGPLPPWQQQQQQPPPPPPPSSSMASSTPLPWQQNTTTTTTSAGTGSIPPWQQQQAAAAASPGAPQMQGNPTMVPLPPGVQPPLPPGAPPPPPPPPPGSAG
notes: splicing factor 1 (SF1), residues 468-594; His6-GB1-TEV site cassette of the pET24 vector, not cleaved; also called SF1 BC; source: E. coli BL21(DE3), purified (Ni-NTA, SEC); not shown: GB1, N-terminal, kept
B8: GB1-SF3A1 C-ter Pro (residues 552-683) (domain or fragment, UniProt Q15459 552-683, looked up)
chain: EIPQQPPPPSSATNIPSSAPPITSVPRPPTMPPPVRTTVVSAVPVMPRPPMASVVRLPPGSVIAPMPPIIHAPRINVVPMPPSAPPIMAPRPPPMIVPTAFVPAPPVAPVPAPAPMPPVHPPPPMEDEPTSK
notes: His6-GB1-TEV site cassette of the pET24 vector, not cleaved; source: E. coli BL21(DE3), purified (Ni-NTA, SEC); not shown: GB1, N-terminal, kept
B9: GB1-SF1 Pro BCD (residues 468-639) (domain or fragment, UniProt Q15637 468-639, looked up)
chain: GMMPPPPMGMMPPPPPPPSGQPPPPPSGPLPPWQQQQQQPPPPPPPSSSMASSTPLPWQQNTTTTTTSAGTGSIPPWQQQQAAAAASPGAPQMQGNPTMVPLPPGVQPPLPPGAPPPPPPPPPGSAGMMYAPPPPPPPPMDPSNFVTMMGMGVAGMPPFGMPPAPPPPPPQN
notes: splicing factor 1 (SF1), residues 468-639; His6-GB1-TEV site cassette of the pET24 vector, not cleaved; source: E. coli BL21(DE3), purified (Ni-NTA, SEC); not shown: GB1, N-terminal, kept
B10: GB1-SF1 Pro CD (residues 539-639) (domain or fragment, UniProt Q15637 539-639, looked up)
chain: GSIPPWQQQQAAAAASPGAPQMQGNPTMVPLPPGVQPPLPPGAPPPPPPPPPGSAGMMYAPPPPPPPPMDPSNFVTMMGMGVAGMPPFGMPPAPPPPPPQN
notes: splicing factor 1 (SF1), residues 539-639; His6-GB1-TEV site cassette of the pET24 vector, not cleaved; source: E. coli BL21(DE3), purified (Ni-NTA, SEC); not shown: GB1, N-terminal, kept

In one experiment the target is T1, PRPF40A WW12 (tandem WW domains, residues 141-236) (human, UniProt O75400 141-236).
T1 construct: pETM11 vector, NcoI/KpnI; 15N or 13C,15N labelled for NMR; also called PRPF40A WW tandem; PRPF40A tandem WW domains; source: E. coli BL21(DE3), purified (Ni-NTA, TEV, reverse Ni-NTA, SEC); not shown: His6, N-terminal, cleaved
In words: ITC; 16-mer SF1 and polyproline peptides (N-terminal GB1 tagged) in the cell and PRPF40A construct in the syringe (said for Fig. 2; not told for Fig. 5C); 25 °C, 20 mM sodium phosphate pH 6.5, 100 mM NaCl; one-site model; apparent affinities. To be noted: both partners purified. (In general: ITC needs no label: the signal is the heat of the interaction.)
In the case of B1, the Kd is ~10 µM.

The target of another experiment is T2, PRPF40A WW12 (tandem WW domains, residues 141-236) (human, UniProt O75400 141-236).
T2 construct: A few vector residues probably remain at the N-terminus after TEV cleavage (pETM11, NcoI site); 15N-labelled in the NMR experiments; also called PRPF40A WW tandem; WW12 wt; source: E. coli BL21(DE3), purified (Ni-NTA, TEV digestion, reverse Ni-NTA, SEC); not shown: His6, N-terminal, cleaved
Kind of experiment: ITC; GB1-peptide or GB1-SF1 construct in the cell, PRPF40A WW12 in the syringe (as shown in Supplementary Figures 7 and 16A); 25 °C, 20 mM sodium phosphate pH 6.5, 100 mM NaCl; one-site binding model; at least duplicates; affinities apparent. The note with it: both partners purified.
With PPPPPPPPPPPPPPPPPPPPPP [GB1-polyproline peptide P22], the Kd turned out to be 9.29 ± 0.88 µM.
Still for that read-out and setting: as for B2, the figure is 2.02 ± 0.09 µM; as for B3, 10.1 ± 4.2 µM; as for B4, 20.6 ± 4.9 µM.
Still for that read-out and setting: as for PPPPPPPPPPPPPPPPPPP [GB1-polyproline peptide P19], the figure is 6.76 ± 0.96 µM.
Same read-out and setting: as for PPPPPPPPPPPPPPPP [GB1-polyproline peptide P16], the figure is 3.35 ± 0.27 µM.

A further experiment addresses T2, PRPF40A WW12 (tandem WW domains, …). Kind of experiment: ITC; PRPF40A construct (WW12, N-ext-WW12 or its mutant) in the cell, GB1-SF1 or GB1-SF3A1 construct in the syringe (as shown in Supplementary Figures 16 and 21); 25 °C, 20 mM sodium phosphate pH 6.5, 100 mM NaCl; one-site binding model; at least duplicates; affinities apparent. To be noted: both partners purified.
In general, stoichiometry N refers to the number of molecules, sites or subunits per partner or assembly. In the case of B5, the Kd came to 8.86 ± 1.38 µM and the “stoichiometry N” value was found to be 0.56 ± 0.14 sites.
Take B6: the “stoichiometry N” value stood at 0.28 ± 0.05 sites.
Regarding B7, the “stoichiometry N” value worked out at 0.53 ± 0.05 sites.
Same read-out and setting: as for B8, the figure is 0.27 ± 0.07 sites; as for B9, 0.28 ± 0.02 sites.
Same read-out and setting: as for B10, the figure is 0.39 ± 0.02 sites.
